Results: the nanobody polyreactivity screen of Harvey et al. (2022)

Assay: yeast display, Sf9 membrane polyspecificity reagent, FACS + sequencing; frameworks hold sequencing errors
In short: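 After 36–48 hours of galactose induction, yeast (Saccharomyces cerevisiae BJ5465) displaying a synthetic nanobody library were stained at 4 °C for 1 hour with 10% biotinylated, detergent-solubilized Sf9 membrane reagent. Streptavidin microbeads enriched the stained cells before FACS sorting into low and high (top ~1%) gates on anti-HA and streptavidin fluorescence. Each clone's polyreactivity label reflects its gate of origin.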
In the case of “QVQLVESGGGLVQAGGSLRLSCAASGSTFTTNAMGWYIQAPGKERELVATISGGSTNYADSVKGRFTISRDNAKNTVYLQMNSLKPEDTAVYYCNTDGEVTYDYWGQGTQVTVSS”, the “polyreactivity (PSR sort gate)” value is reported as “low polyreactivity”. For “QVQLVESGGGLVQAGGSLRLSCAASGSTFTTNAMGWYSQAPGKERELVATISGGGSTYYADSVKGRFTISRDNAKNTVYLQMNSLKPEDTAVYYCATDVQVPGIGRSVYAYEYWGQGTQVTVSS”, the “polyreactivity (PSR sort gate)” value was “low polyreactivity”. For “QVQLVESGGGLVQAGGSLRLSCAASGSTFTTYAMGWYRQAPGKERELVAAISRTGGVTYYADTVKGRFTISRDNGKKTVYLQMNSLKPDDTAVYYCNAGLFRGAQFDYWGLGTQVTVSS”, the “polyreactivity (PSR sort gate)” value was “high polyreactivity”. With “QVQLVESGGGLVQAGGSLRLSCAASGSTFTVNCMGWYRQAPGKERELVASITWSGGSTYYADSVKGRFTISRDNAKNTVYFQMNSLKPEDTAVYYCAADEKLYITGYDYWGQGTQVTVSS” the “polyreactivity (PSR sort gate)” value was “low polyreactivity”. For “QVQLVESGGGLVQAGGSLRLSCAASGSTFTVNDMGWYRQAPGKERELVAAITQRDGRTFYADSVKGRFTISRDNAKNTVYLQMNSLKPEDTAVYYCAATFIQVVVNVQLYDYDYWGQGTQVTVSS”, the “polyreactivity (PSR sort gate)” value was “low polyreactivity”. With “QVQLVESGGGLVQAGGSLRLSCAASGSTFTVNGMGWYRQAPGKERELVASITWSGGSTYYADSVKGRFTISRDNAKNTVYLQLNSLKPEDTAVYYCNAVDTRVPSIRFDYWGQRTQVTVSS” the “polyreactivity (PSR sort gate)” value was “low polyreactivity”. For “QVQLVESGGGLVQAGGSLRLSCAASGSTFTVNGMGWYRQATGKESELVAAIDGGDGSTYYADSVKGRFTISRDNAKNTVYLQMNSLKPEDTAVYYCAADPPGFTQYGYWGQGTQVTVSS”, the “polyreactivity (PSR sort gate)” value was “low polyreactivity”. For “QVQLVESGGGLVQAGGSLRLSCAASGSTFTVYAMGWYRQAPGKERELVAAISSSTGSTYYADSVKGRFTISRDNAKNTVYLQMNSLKPEDTAVSYCAADVYHVTTSSYTEFEYWGQGTQVTVSS”, the “polyreactivity (PSR sort gate)” value was “low polyreactivity”. For “QVQLVESGGGLVQAGGSLRLSCAASGSTFTVYAMGWYRQAPGKERELVAAISWSGGSTYYADSVKGRFTISRDNAKNTVYLQMNSLKPEDTAVYYCAVVIYWRTGEYDYWGQGTQVTVSS”, the “polyreactivity (PSR sort gate)” value was “low polyreactivity”. For “QVQLVESGGGLVQAGGSLRLSCAASGSTFTVYAMGWYRQAPGKERELVAGISSGGSTYYADSVKGRFTISRDNAKNTVYLQMNSLKPEDTAVYYCAALRVRVPLGTYGYWGQVTQVTVSS”, the “polyreactivity (PSR sort gate)” value was “high polyreactivity”. With “QVQLVESGGGLVQAGGSLRLSCAASGSTFTWYAMGWYRQAPGKEGELVAAISRGGSTNYADSVKGRFTISRDNAKNTVYLQMNSLKPEDTAVYYCAAESYWRDDYWGQGTQVTVSS” the “polyreactivity (PSR sort gate)” value was “low polyreactivity”. With “QVQLVESGGGLVQAGGSLRLSCAASGSTFTYNAMGWYRQAPGKERELVAAIRSNGGSTYYADSVKGRFTISRDNAKNTVYLQMNSLKPEDTAVYYCAARLSVLGGYRGRNAWRFDHWGLGTQVTVSS” the “polyreactivity (PSR sort gate)” value was “high polyreactivity”. In the case of “QVQLVESGGGLVQAGGSLRLSCAASGSTFTYNTLVWYRQAPGKERELVAAISWGGGGTYYADSVKGRFTISRDNAKNTVYLQMNSLKPEDTAVYYCNADPWWDYGTFDYWGQGTQVTVSS”, the “polyreactivity (PSR sort gate)” value is reported as “low polyreactivity”. In the case of “QVQLVESGGGLVQAGGSLRLSCAASGSTFTYYDMGWYRQAPGKERELVATIDSTTRTYYADSVKGRFTISRDNAKNTVYLQMNSLKPEDTAVYYCAADLTWAYFYYLFYRYDYWGQGTQVTVSS”, the “polyreactivity (PSR sort gate)” value is reported as “low polyreactivity”. With “QVQLVESGGGLVQAGGSLRLSCAASGSTFTYYTMAWYRQAPGKERELVAAISWSGGRTYYADSVKGRFTISRDNAKNTVYLQMNSLKPEDTAVYYCAAGPAPGHDSWGQGTQVTVSS” the “polyreactivity (PSR sort gate)” value was “high polyreactivity”. With “QVQLVESGGGLVQAGGSLRLSCAASGSTFVANAMGWYIQAPGKERELVAAISFNRGGNTYYADSVKGRFTISRDNAKNTVYLQMNSLKPEDTAVYYCAAAQRELPTVRRNYWGQGTQVTVSS” the “polyreactivity (PSR sort gate)” value was “high polyreactivity”. In the case of “QVQLVESGGGLVQAGGSLRLSCAASGSTFVANAMGWYRQAPGKERELVAAISGAGGGTYYADSVKGRFTISRDNAKNTVYLQMNSLKPEDTAVYYCAAVPWYYYHYWVSHPYGGDYWGQGTQVTVSS”, the “polyreactivity (PSR sort gate)” value is reported as “low polyreactivity”. In the case of “QVQLVESGGGLVQAGGSLRLSCAASGSTFVAYAKGWYRQAPGKETEWDASISGSGGTTNYADSVKGRFTISRDNAKNTVYLQMNSLKPEDTAVYYCARRYYSVKSRYALNSWGQGTQVTVSS”, the “polyreactivity (PSR sort gate)” value is reported as “high polyreactivity”. For “QVQLVESGGGLVQAGGSLRLSCAASGSTFVAYAMGWYRQAPGKERELVAAITYSGGRTYYADSVKGRFTISRDNAKNTVYLQMNSLKPEDTAVYSCAATGVFRDEYWGQGTQVTVSS”, the “polyreactivity (PSR sort gate)” value was “low polyreactivity”. With “QVQLVESGGGLVQAGGSLRLSCAASGSTFVDYAMGWYRPAPGKERELVAAINSDGGGTYYADSVKGRFTISRDNAKNTVYLQMNSLKPEDTAVYYCAAVGYTTYRRYDYWGQGTQVTVSS” the “polyreactivity (PSR sort gate)” value was “low polyreactivity”. For “QVQLVESGGGLVQAGGSLRLSCAASGSTFVFYAMGWYRQAPGKERELVAGISDSGGNTYYADSVKGRFTISRDNAKNTVYLQMNSLKPEDTAVYYCATRYPYYPFYVGIYELDYWGQGTQVTVSS”, the “polyreactivity (PSR sort gate)” value was “low polyreactivity”. For “QVQLVESGGGLVQAGGSLRLSCAASGSTFVFYAMGWYRQAPRKERELVAAITIGGSTYADSVKGRFTISRDNAKNTVYLQMNSLNPEDTAVYYCNADDAPSSFTTLDFTFDYWGQGTQVTVSS”, the “polyreactivity (PSR sort gate)” value was “low polyreactivity”. With “QVQLVESGGGLVQAGGSLRLSCAASGSTFVFYTMGWYRQAPGKEREFVASISGSGGSTYYADSVKGRFTISRDNAKNTVYLQMNSLKPEDTAVYYCGAGYPYYYWTPYYYWGQGTQVTVSS” the “polyreactivity (PSR sort gate)” value was “high polyreactivity”. In the case of “QVQLVESGGGLVQAGGSLRLSCAASGSTFVGNAMGCYRQAPVKERELVATISNSGGHTFYADSVKGRFTISRDNAKNTVYLQMNSLKPEDTAVFYCAASTSGAIRRDGYWGQGTQVTVSS”, the “polyreactivity (PSR sort gate)” value is reported as “low polyreactivity”. With “QVQLVESGGGLVQAGGSLRLSCAASGSTFVGNAMGWYRQAPGKERELVAAISRTGGSTYYADSVKGRFTISRDNAKNTVYLQMNSLKPEDTAVYYCNAYTRYSSRRGIGDYWGQGTQVTVSS” the “polyreactivity (PSR sort gate)” value was “high polyreactivity”. With “QVQLVESGGGLVQAGGSLRLSCAASGSTFVGNAMGWYRQAPGKERELVAAITGGGGSTYYADSVKGRFTISRDNAKNTVYLQMNSLKPEDTAVYSCARDRTDYYVWYVRYYYWGQGTQVTVSS” the “polyreactivity (PSR sort gate)” value was “low polyreactivity”. With “QVQLVESGGGLVQAGGSLRLSCAASGSTFVGNAMGWYRQAPGKERELVAGITSSGTSTYYADSVKGRFTMSRDNAKNSVYLQMNRLKPEDTAVYYCATDDADESYGFELFDYWGLGTQVTVSS” the “polyreactivity (PSR sort gate)” value was “low polyreactivity”. In the case of “QVQLVESGGGLVQAGGSLRLSCAASGSTFVHNGMGWYRQAPGIDRELVGAITDGGSTYYADSVKGRFTISRDNAKNTVYLQMNSLKPEDTAVYYCAAGYSRYGYFRGYRYYYWGQGTQVTVSS”, the “polyreactivity (PSR sort gate)” value is reported as “low polyreactivity”. For “QVQLVESGGGLVQAGGSLRLSCAASGSTFVHYAMGWYRQAPGKERELVAAITISGGRTYYADSVKGRFTISRDNAKNTVYLQMNSLKPEDTAVYYCNADHYHRTWGYDYWGQGTQVTVSS”, the “polyreactivity (PSR sort gate)” value was “low polyreactivity”. For “QVQLVESGGGLVQAGGSLRLSCAASGSTFVINAMGWYRQAPGKERELVAAISFSGDTTYYADSVKGRFTISRDNAKNTVYLQMNSLKPEDTAVYYCAASVTVGISKYGYWGQGTQVTVSS”, the “polyreactivity (PSR sort gate)” value was “high polyreactivity”. For “QVQLVESGGGLVQAGGSLRLSCAASGSTFVINAMGWYRQAPGKERELVAAISYSGDSTYADSVKGRFTISRDNEKNTVYLQMNSLKPEDTAVYYCAKYQYDYYTYDYWGQGTQVTVSS”, the “polyreactivity (PSR sort gate)” value was “low polyreactivity”. In the case of “QVQLVESGGGLVQAGGSLRLSCAASGSTFVINAMGWYRQAPGKERELVADIDYRGGSTNYADSVKGRFTISRDNAKNTVYLLMNSLKPEDTAVYYCNKRYVIRRRGYDYWGQGTQVTVSS”, the “polyreactivity (PSR sort gate)” value is reported as “low polyreactivity”. With “QVQLVESGGGLVQAGGSLRLSCAASGSTFVINDMGWYRQAPGKERELVAAITWGSGSTYYADSVKGRFTISRDNAKNTVYLQMNSLKPEDTAVYYCAADVYFGLVGYYAEYNDYWGQGTQVNVSS” the “polyreactivity (PSR sort gate)” value was “low polyreactivity”. In the case of “QVQLVESGGGLVQAGGSLRLSCAASGSTFVIYAMGWYRQAPGKERELVAAIRLGGGSTYYADSVKGRFTISRDNANNTVYLQMNSLKPEDTAVYYCAAEVDQWYYRGYDYWGQGTQVTVSS”, the “polyreactivity (PSR sort gate)” value is reported as “high polyreactivity”. In the case of “QVQLVESGGGLVQAGGSLRLSCAASGSTFVIYAMGWYRQAPGKERELVAAITISGGRTYYADSVKGRFTISRDNAKNTVYLQMNSLKPEDTAVYYCAATVVSTYPYGYGSTFVRDDYWGQGTQVTVSS”, the “polyreactivity (PSR sort gate)” value is reported as “low polyreactivity”. For “QVQLVESGGGLVQAGGSLRLSCAASGSTFVIYGMGLYRQEPGKESDIVADITWIGGSTYYADSVKGRFTISRDNAKNTVYLQMKSLKPEDTAVYYCAADAAYLYLYNWYDTEDYYWGQGTLVTVSS”, the “polyreactivity (PSR sort gate)” value was “low polyreactivity”. In the case of “QVQLVESGGGLVQAGGSLRLSCAASGSTFVIYGMGWYRQAPGTERELVADITWIGGSTYYADSVKGRFTISRDNAKNTVYLQMNSLKPEDTAVYYCNADVRYGRDHWGQGTQVTVSS”, the “polyreactivity (PSR sort gate)” value is reported as “low polyreactivity”. In the case of “QVQLVESGGGLVQAGGSLRLSCAASGSTFVIYTMGWCRQAPGKERELVAAISWSGGITRYADSVKGRFTISRDNAKNTVYLQMNSLKPEDTAVYYCNASQWPSLFDYWGQGTQVTVSS”, the “polyreactivity (PSR sort gate)” value is reported as “low polyreactivity”. For “QVQLVESGGGLVQAGGSLRLSCAASGSTFVNYVMGWYRQAPGKERELVAAISRRGTSTRYADSVKGRFTISRDNAKNTVYLQMNSLKPEDTAVYYCAATRYVGVTGYGYWGQGTQVTVSS”, the “polyreactivity (PSR sort gate)” value was “high polyreactivity”. For “QVQLVESGGGLVQAGGSLRLSCAASGSTFVPNAMGWYRQAPGKERELVAAISRSAGSTYYADSVKGRFTISRDNAKNTVYLQMNSLKPEDTAVYYCAAVSLTYIAYDYWGQGTQVTVSS”, the “polyreactivity (PSR sort gate)” value was “high polyreactivity”. In the case of “QVQLVESGGGLVQAGGSLRLSCAASGSTFVPYAMGWYRQAPGKERELVAAISQSGGSTYYADSVKGRYTISRDNAKNTVYLQMTSLKPEYTAVYYCNVDQFRYPEYDYWGQGTQVTVSS”, the “polyreactivity (PSR sort gate)” value is reported as “high polyreactivity”. In the case of “QVQLVESGGGLVQAGGSLRLSCAASGSTFVPYTMGWYRQAPGKERELVAAISSGDSTYYADSVKGRFTISRDNAKNTVYLQMNSLKPEDTAVYYCAADYQWFWVWYGYWGQGTQVTVSS”, the “polyreactivity (PSR sort gate)” value is reported as “high polyreactivity”. With “QVQLVESGGGLVQAGGSLRLSCAASGSTFVPYTMGWYRQAPGKERELVAAMSGSGGTDYADSVKGRFTISRDNAKNTVYLQMNSLKPEDTAVYYCATDGLDFWFIYDYWGQGTQVTVSS” the “polyreactivity (PSR sort gate)” value was “low polyreactivity”.
